From the nanobody polyreactivity screen of Harvey et al. (2022)

Assay: yeast display, Sf9 membrane polyspecificity reagent, FACS + sequencing; frameworks hold sequencing errors
Summary of the method: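 In a synthetic yeast display library (Saccharomyces cerevisiae BJ5465), nanobody expression was induced with galactose for 36–48 hours. FACS gates were set low and high (top ~1%) using anti-HA fluorescence for expression and streptavidin fluorescence for binding of the Sf9 membrane reagent. Each polyreactivity label is drawn from the gate of origin.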

| Sequence | polyreactivity (PSR sort gate) |
| --- | --- |
| QVQLEESGGGLMQAGGNLRLSCAASGYISTHYDMDWYRQAPGRERELVARIDDGAITNYADSVKGRFTISRDNATNTVYLQMNSLKPEDTAVYYCAVYSGDDYYHDYWGQGTQVTVSS | low polyreactivity |
| QVQLEESGGGLVQAGASLRLICAASGFTFARNAMGWYRQAPGKERELVASITSGGSTNYADSVKGRFTISRDNAKNTVYLQMNSLKPEETAVYYCAAYQWIAPRRDYWGQGTQVTVSS | low polyreactivity |
| QVQLEESGGGLVQAGASLRLSCAASGNIFPRNAMGWYRQAPGKERELVAAISASGDNTYYADSVKGRFTISRDNAKNTVYLQMNSLKPEDTEVYYCAAATFYESIQPYESVAYDYWGQGTQVTVSS | low polyreactivity |
| QVQLEESGGGLVQAGGILRLSCAASGFTLVYYAMGSYRQAPGKERELVATISGNGGRTYYADSVKGRFTISRDNAKNTDNLQMNSLKPEDTAVYYCAALLYIGSVGYDYWGQGTQVTVSS | low polyreactivity |
| QVQLEESGGGLVQAGGRHRLSCAASGNIFTSYTMGWYRQAPGKERELVAAISGGGGSTYYADSVKGRFTISRDNAKNTVYLQMNSLKPEDTAVYYCNAGRWWRRGYGYWGQGTQVTVSS | high polyreactivity |
| QVQLEESGGGLVQAGGRLRLSCAASGITFGSYAMGWYRQAPGKERELVAAITRSDITNYADSVKGRFTISRDNAKNSVYLQMNRLNREDTAVYYCNKTPDRHRRYFGYGYWGHGTQVTVSS | low polyreactivity |
| QVQLEESGGGLVQAGGRLRLSCAASGSTFDPNTMGWYRQAPGKERELVATITSVDSTNYADSVKGRFTISRDNAKNTVYLQMNSLKPEDTAVYYCNAAYGGVFFYAYDYWGQGTQVTVSS | low polyreactivity |
| QVQLEESGGGLVQAGGRLRLSCDASGITLLLKAMGWYRQAPGKERELFAAISEGGGSTYYADSVKGRFTISRDNAKNTVYLQMNSLTPEDTAVYYCAADEYTPDYGQGYDYWGQGTQVTVSS | low polyreactivity |
| QVQLEESGGGLVQAGGSHRLSCAASGQIFRHYAMGWYRQAPGKEREFVAAITGSGGNTYYADSLKGRFTISRDNAKNTVYLQMNSLKPEDTAVYYCAVRAYPSYPRGVYAYYYWGQGTQVTVSS | high polyreactivity |
| QVQLEESGGGLVQAGGSHRLSCPASGRIFRANAMGWYRQAPGKERELLAAITRSGGSTYYADSVKGRFTISRDNAKNTVYLHMISLKPEDTAVYYWNARTRFDDGYDYWGQGTQVTVSS | high polyreactivity |
| QVQLEESGGGLVQAGGSLLLSCAASGLIFYHNAMGWYIQAPGKERELVAAITASGGSTYYADSVKGRFTISRDNANNTVYLQIISLKTEDTAVYYCAADGPLDSDLDYWRQGTQVTVSS | low polyreactivity |
| QVQLEESGGGLVQAGGSLPLICAASGRIFATYAMGWYRQAPGKARELVAAISGRGSSTYYADSVKVRFTISRDNAKNTVYLQMNSLKPEDTAVSYCAAVVRHSFGYDSWGQCTQVTVSS | high polyreactivity |
| QVQLEESGGGLVQAGGSLRFSCAASGSIMTRNAMGWYRQPTGKEMELVAAITGSGGRTYYADSVKGRFSISRDNAKKTFFLQMTSLIPEDTAVYYCATRYGREDYWGQGTQVNVSS | high polyreactivity |
| QVQLEESGGGLVQAGGSLRISCAASGRTIGPYAMGWYRQARGKERELVAAISGGGSTNYADSVKGRFTISRDNAKNSDYLQMNSLKPEDTAVYYCNTEYPISGEEEYWGQGTHVTVSS | low polyreactivity |
| QVQLEESGGGLVQAGGSLRISCAASGRTLRSYAMGWYRQAPGKERELVAAISWNGGDTYADSVKGRFTISRDNAKNTVYLQMNSLKPEDTAVYYCAASRWFSRYWYGIDKYNYWGQGTQVTVSS | high polyreactivity |
| QVQLEESGGGLVQAGGSLRISCAASGSTFWRYTMGWYRQEPGKERELVAAISWSGDGTYYADSVKGRFTISRDNAKNTVYLQMNSLKPEDTAVYYCAAEVYYANGYDYDYWGQGTQVTVSS | low polyreactivity |
| QVQLEESGGGLVQAGGSLRISCAAYGRTLRQYALGWYRQAPGKERELVAAISRGGSTTYADSVKGRFTISRDNAKNTVYLQMNSLKPEDTAVYYCAAVSSKGNRHEYDYWGQGTQVTVSS | low polyreactivity |
| QVQLEESGGGLVQAGGSLRLICAASGSIFYQYPMGWYRQAPGKERELVAGITWSGGSTYYADSVKGRFTISRDNAKNTVYLQMNSLKPEDTAVYYCAAQYFCYVYSYDYWGQGTQVTVSS | high polyreactivity |
| QVQLEESGGGLVQAGGSLRLSCAASALTIEYNAKGSYRQAPAKERELVATISWSDSTRYADSVKGRLTISRDNAKSTVYLQMNSLKPEYTAVYDSNADVYWAWWEFDYWGQGTQVTVSS | low polyreactivity |
| QVQLEESGGGLVQAGGSLRLSCAASGFIFSWYVMGWYRQAPGKERELVAAISQSGGDTYYADSVKGRFTISRDNAKNTVYLQMNSLKPEDTAVYYCAVGRVGRFYYWGQGTQVTVSS | high polyreactivity |
| QVQLEESGGGLVQAGGSLRLSCAASGFTFGVYPMGWYRQATGKEREFVADITYSGGSTYYADSVKGRFTISRDNAKNTVYLHMNSLKPEDTAVYYCAAGYVYTWYGEYVVGYDYWGQGTQVTVSS | high polyreactivity |
| QVQLEESGGGLVQAGGSLRLSCAASGFTFHPNAMGWYRQAPGKERELVAAIRYSTGRTYYADSVKGRFTISRDNAKNTVYLQMNSLKPEDTAVYYCAREALQYPGLKYNYWGQGTQVTVSS | low polyreactivity |
| QVQLEESGGGLVQAGGSLRLSCAASGFTFIRYAMGWYRQAPGTERELVAAIRGTGTSTYYADSVKGRFTISRDNAKNTVYLQMNSLKPEDTAVYYCNKVAGRSPYTRYDYWGQGTQVTVSS | low polyreactivity |
| QVQLEESGGGLVQAGGSLRLSCAASGFTFRKNAMGWYRQAPGKERELVAAISSGGGRTYYADSVKGRFTISRDNANNTVYLQMNSLKPEDTAVYYCAVSIGRYPYRYGYWGQGTQVTVSS | high polyreactivity |
| QVQLEESGGGLVQAGGSLRLSCAASGFTFTDYAMGWYRQAPGKERELVAVITYDSTYYADSVKGRFTISRDNAKNTVYLQMNSLKPEDTAVYYCAADSYDWGDFDYWGQGTQVTVSS | low polyreactivity |
| QVQLEESGGGLVQAGGSLRLSCAASGFTFVPYAMGWYRPAPGKETEFVAALFSDGSTYYADSVKGRFTISRDNAKNTVYLQMNSLKPEDTAVYYCAAAGESSRTGHFDYWGQGTQVTVSS | low polyreactivity |
| QVQLEESGGGLVQAGGSLRLSCAASGFTFVSYAMGWYRQAPGKERELVAAISRRGGRTYYADSVKGRFTISRDNAKNTVYLQMNSLKPEDTAVYYCNKDYYGSPSSYYWYDYWGQGTQVTVSS | high polyreactivity |
| QVQLEESGGGLVQAGGSLRLSCAASGFTFYDYAMVWYRQAPGKERELVAAIRRSGTRTYYADSVKGRFTISRDNAKNTVYLQINSLKPEDTAVYYCAARYSYTHQRDYWGQGTLVTVSS | high polyreactivity |
| QVQLEESGGGLVQAGGSLRLSCAASGFTFYSYVMGWYRPAPGKVTELVAAIYWSGGSTYYADSVKGRFTISRDNAKYTVYLQMNSLKPEDTAVYYCAARRYASRNGYLYDYWGQGTQVTVSS | high polyreactivity |
| QVQLEESGGGLVQAGGSLRLSCAASGGIFYEYAMGRYRQAPGKERELVATISFNVASTYADSVKGRFTISRDNAKNTVFLQMNSMKPEDTAVYYCIADTYWYRDSRYDYWGQGTQVTVSS | low polyreactivity |
